Assay [1] relates to cynomolgus monkey LAMP1 expressed transiently at the cell surface of HEK293. The experiment in a line: FACS on HEK293 cells transiently transfected with cynomolgus LAMP1. The format is binding. As to conditions: transient HEK293. From the text: LAMP1 Coding DNA Sequence, RefSeq NM_005561.3 (SEQ ID NO: 23) was cloned internally. The CDS of Macaca mulatta LAMP1, RefSeq XP_001087801 (SEQ ID NO: 27) was also cloned internally. The predicted sequences of mature LAMP1 from Macaca mulatta and Macaca fascicularis are identical to 99%, said sequence differing by one additional Leucin at position 11 of Macaca mulatta (SEQ ID NO: 27), i.e. in the signal peptide. The mature LAMP1 proteins of Macaca mulatta and Macaca fascicularis are identical. Therefore the secreted LAMP1 used in the following example is referred to cynomolgus monkey. Both CDS were cloned into mammalian expression plasmids under CMV enhancer/promoter and SV40 polyA signals. HEK293 cells (Invitrogen; #K9000-10.) were transiently transfected with human LAMP1 or cynomolgus LAMP1 plasmids using FreeStyle™ MAX 293 Expression System according to the manufacturer's instructions. […] 100 μL/well of goat anti-mouse IgG conjugated with Alexa647 (Invitrogen; #A2135) was added for 45 min at 4° C. and washed three times with PBS 1% BSA. The antibody binding was evaluated after centrifugation and resuspension of cells by adding 200 μl/well PBS 1% BSA and read using Guava® easyCyte™ 8HT Flow Cytometry System. EC50 values were estimated using BIOST@T-SPEED software.

Assay [2] deals with T1, LAMP1 in human tumoral and non-tumoral tissues (Homo sapiens, UniProt P11279).
T1 construct: from tissue; host or cells: human tumoral and non-tumoral tissue sections and PDX tumour sections (frozen-OCT, AFA, FFPE)
T1 sequence (P11279 29-417): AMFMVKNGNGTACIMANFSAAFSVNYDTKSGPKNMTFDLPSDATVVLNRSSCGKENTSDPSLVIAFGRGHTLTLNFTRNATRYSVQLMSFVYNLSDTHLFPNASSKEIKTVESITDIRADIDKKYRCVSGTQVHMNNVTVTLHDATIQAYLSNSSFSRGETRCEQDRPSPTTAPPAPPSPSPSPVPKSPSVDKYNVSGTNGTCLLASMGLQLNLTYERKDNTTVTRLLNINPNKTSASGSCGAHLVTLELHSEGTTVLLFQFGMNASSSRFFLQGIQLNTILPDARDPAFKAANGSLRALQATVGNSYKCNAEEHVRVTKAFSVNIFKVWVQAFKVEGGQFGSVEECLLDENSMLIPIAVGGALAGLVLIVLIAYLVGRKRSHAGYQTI
Description: IHC on frozen-OCT / AFA human tumoral and non-tumoral tissues. As to conditions: CR-LRB-010P, human non-tumoral colon and skin. The procedure: Individual hybridoma supernatants raised against tumor tissue CR-LRB-010P were screened by IHC on a macroarray slide containing frozen sections of immunizing tumor (CR-LRB-010P), human non-tumoral colon and human non-tumoral skin. Frozen-OCT (from Optimal Cutting Temperature) specimens of non-tumoral colon and skin were obtained from surgical cases (commercial sources such as Asterand, US Biomax, Strasbourg Hospital). The automated immunostaining was performed unsing Ventana Discovery and Discovery XT automated systems (Ventana Medical Systems, Inc, USA).
Frozen 10 μm cryostat sections were incubated with IgG culture supernatants as primary antibody (unknown concentration, dilution ⅓ in Phosphate Buffer Saline, PBS) for 40 min at 37° C. Culture medium was used as negative control. A postfixation step with glutaraldehyde (0.05% in NaCl 0.9% w/v) for 4 min was done. The secondary antibody Affinipure rabbit anti-mouse IgG (315-005_008, Jackson Immunosearch Laboratories, Inc. USA) was used at 4.8 μg/mL and incubated for 12 min at 37° C. Immunostaining was done with UltraMap Red chromogenic detection kit according to manufacturers recommendations for 8 min. Cryostat sections were subsequently couterstaining with hematoxylin II (790-2208, Ventana Medical Systems, Inc USA) and bluing for 4 min (760-2037). […]
Sections immunostained with mAbs were analyzed by microscope (Nikon Eclipse E400). […]

Chain of cynomolgus monkey LAMP1 expressed transiently at the cell surface of HEK293 (as listed by the source): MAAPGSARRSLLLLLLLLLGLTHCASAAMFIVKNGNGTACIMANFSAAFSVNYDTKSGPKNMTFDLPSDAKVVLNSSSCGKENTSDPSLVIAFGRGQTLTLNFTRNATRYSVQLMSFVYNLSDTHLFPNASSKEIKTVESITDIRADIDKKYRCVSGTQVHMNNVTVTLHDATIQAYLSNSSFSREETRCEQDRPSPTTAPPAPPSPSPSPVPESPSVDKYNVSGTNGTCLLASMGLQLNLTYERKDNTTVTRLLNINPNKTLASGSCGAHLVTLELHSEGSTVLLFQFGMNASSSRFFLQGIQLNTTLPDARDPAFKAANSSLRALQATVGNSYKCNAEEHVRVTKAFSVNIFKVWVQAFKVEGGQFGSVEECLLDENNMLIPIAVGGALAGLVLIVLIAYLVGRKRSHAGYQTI

B1: MAb1: murine monoclonal anti-LAMP1 antibody, VH SEQ ID NO: 1, VL SEQ ID NO: 5 (antibody, V domains shown)
VH: QVQLQQSGAELVKPGASVKMSCKASGYIFTNYNIHWVKKSPGQGLEWIGAIYPGNGDAPYSQKFKDKATLTADKSSSTTYMQLSRLTSEDSAVYYCVRANWDVAFAYWGQGTLVSVSA
VL: DIQMTQSPPSLSASLGGKVTITCKASQDIDRYMAWYQDKPGKGPRLLIHDTSTLQPGIPSRFSGSGSGRDYSFSISNLEPEDIATYYCLQYDNLWTFGGGTKLEIK
modifications: Antibody Fragment; antibody fragment
As usually defined, the EC50 is the concentration at which the effect is half-maximal. In the case of B1, in assay [1], it took 44 nM to reach a half-maximal effect (EC50). In assay [2], the “IHC reactivity on frozen sections” value is listed as “showed evidence of tumor-associated reactivity”.

The values are drawn from US9809653B2, “Anti-LAMP1 antibodies and antibody drug conjugates, and uses thereof” (SANOFI, priority 2012, dated 2017).
